Measurements from patent publication US20130295106A1 (ONCOMED PHARMACEUTICALS, published 2013).

Key:
Test in all cases: flow cytometry, HEK293 cells transiently co-transfected with FZD expression vector and GFP
[1] = target: T1, human FZD4 expressed on transfected HEK293 cells (human, UniProt Q9ULV1 37-537)
T1 sequence: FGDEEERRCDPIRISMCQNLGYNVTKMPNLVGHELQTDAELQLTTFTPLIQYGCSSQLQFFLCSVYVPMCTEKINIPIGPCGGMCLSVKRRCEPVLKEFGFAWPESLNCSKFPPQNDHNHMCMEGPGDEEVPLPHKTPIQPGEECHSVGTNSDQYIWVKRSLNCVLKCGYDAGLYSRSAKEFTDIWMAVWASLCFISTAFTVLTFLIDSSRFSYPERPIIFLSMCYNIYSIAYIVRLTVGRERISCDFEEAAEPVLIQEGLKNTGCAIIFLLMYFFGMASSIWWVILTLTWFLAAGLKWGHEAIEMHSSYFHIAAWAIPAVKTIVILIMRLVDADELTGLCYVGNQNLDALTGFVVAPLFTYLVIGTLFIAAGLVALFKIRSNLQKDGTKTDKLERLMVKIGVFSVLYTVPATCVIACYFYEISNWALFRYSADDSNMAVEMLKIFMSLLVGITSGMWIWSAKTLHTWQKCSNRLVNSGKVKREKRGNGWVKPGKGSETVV
Protocol: (§1) To measure antibody binding to FZD by flow cytometry HEK293 cells were co-transfected with FZD expression vectors and the transfection marker GFP. Twenty-four to forty-eight hours post-transfection, cells were collected in suspension and incubated on ice with anti-FZD antibodies (10 μg/ml unless otherwise indicated) or control IgG to detect background antibody binding. The cells were washed and primary antibodies detected with Fc domain-specific secondary antibodies conjugated to a fluorescent chromophore (e.g. phycoerythrin conjugated anti-human IgG). Labeled cells were then analyzed by flow cytometry to identify anti-FZD antibodies that specifically recognize cell surface expression of FZD protein. Monoclonal antibodies 18R5 and 18R8 recognized FZD on transfected cells. As shown in FIG. 1 and FIG. 2, both 18R8 and 18R5 bind to multiple FZD including FZD1, FZD2, FZD5, FZD7, and FZD8. To examine the relative ability of 18R8 and 18R5 to bind to each FZD protein, titration analysis was conducted wherein the amount of antibody in the binding reaction was varied (FIG. 2).

[2] = target: T2, human FZD3 expressed on transfected HEK293 cells (human, UniProt Q9NPG1 23-666)
T2 sequence: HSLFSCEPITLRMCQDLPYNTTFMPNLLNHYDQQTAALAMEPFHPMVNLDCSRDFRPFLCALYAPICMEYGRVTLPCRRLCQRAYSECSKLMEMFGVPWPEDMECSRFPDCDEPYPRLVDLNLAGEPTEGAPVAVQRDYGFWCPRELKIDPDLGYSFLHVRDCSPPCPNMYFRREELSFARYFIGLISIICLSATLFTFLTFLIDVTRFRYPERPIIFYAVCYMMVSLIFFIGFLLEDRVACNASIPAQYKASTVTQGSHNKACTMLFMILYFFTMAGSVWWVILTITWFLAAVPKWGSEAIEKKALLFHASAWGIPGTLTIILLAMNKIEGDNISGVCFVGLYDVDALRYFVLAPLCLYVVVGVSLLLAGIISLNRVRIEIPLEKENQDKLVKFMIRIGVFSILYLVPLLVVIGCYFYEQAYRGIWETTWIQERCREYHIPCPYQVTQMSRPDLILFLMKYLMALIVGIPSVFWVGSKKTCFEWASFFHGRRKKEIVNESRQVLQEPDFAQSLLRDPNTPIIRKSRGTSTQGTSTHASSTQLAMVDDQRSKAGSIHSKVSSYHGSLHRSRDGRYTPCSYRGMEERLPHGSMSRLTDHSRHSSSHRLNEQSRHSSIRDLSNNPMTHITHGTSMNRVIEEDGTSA
Protocol: as §1

[3] = target: T3, human FZD10 expressed on transfected HEK293 cells (human, UniProt Q9ULW2 21-581)
T3 sequence: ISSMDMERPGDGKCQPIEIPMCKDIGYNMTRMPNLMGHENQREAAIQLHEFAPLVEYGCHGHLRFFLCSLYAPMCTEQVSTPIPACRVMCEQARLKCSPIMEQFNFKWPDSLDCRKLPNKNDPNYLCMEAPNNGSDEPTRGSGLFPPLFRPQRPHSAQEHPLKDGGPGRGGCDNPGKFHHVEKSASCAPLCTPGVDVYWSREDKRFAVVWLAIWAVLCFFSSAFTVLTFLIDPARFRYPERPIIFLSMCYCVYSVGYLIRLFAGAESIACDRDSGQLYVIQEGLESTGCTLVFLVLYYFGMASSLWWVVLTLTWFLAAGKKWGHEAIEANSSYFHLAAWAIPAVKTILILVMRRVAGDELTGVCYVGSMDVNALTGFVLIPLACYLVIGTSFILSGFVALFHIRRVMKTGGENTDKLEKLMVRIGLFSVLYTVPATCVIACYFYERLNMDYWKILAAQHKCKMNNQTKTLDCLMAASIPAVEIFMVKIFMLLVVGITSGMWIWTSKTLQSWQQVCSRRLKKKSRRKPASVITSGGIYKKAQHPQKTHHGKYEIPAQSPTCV
Protocol: as §1

[4] = target: T4, human FZD6 expressed on transfected HEK293 cells (human, UniProt O60353 19-706)
T4 sequence: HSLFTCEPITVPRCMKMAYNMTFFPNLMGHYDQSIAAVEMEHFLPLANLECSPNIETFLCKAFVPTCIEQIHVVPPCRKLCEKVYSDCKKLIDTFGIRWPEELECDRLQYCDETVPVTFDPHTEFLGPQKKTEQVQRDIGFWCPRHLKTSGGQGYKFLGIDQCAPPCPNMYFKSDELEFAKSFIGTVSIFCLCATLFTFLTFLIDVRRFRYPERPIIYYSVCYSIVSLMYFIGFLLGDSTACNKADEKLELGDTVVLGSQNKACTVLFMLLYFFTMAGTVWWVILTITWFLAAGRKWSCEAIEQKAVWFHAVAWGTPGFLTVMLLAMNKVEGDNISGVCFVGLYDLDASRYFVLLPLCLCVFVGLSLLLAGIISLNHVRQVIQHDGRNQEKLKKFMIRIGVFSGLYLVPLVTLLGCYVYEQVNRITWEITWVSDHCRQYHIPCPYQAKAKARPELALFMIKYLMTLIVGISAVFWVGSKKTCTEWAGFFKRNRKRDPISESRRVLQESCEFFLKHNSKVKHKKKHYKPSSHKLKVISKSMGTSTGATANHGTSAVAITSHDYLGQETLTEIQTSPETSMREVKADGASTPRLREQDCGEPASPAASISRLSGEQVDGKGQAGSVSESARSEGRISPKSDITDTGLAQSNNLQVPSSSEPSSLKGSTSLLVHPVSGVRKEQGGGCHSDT
Protocol: as §1

Measured: binding result

B1: 18R8 IgG antibody (human IgG2, lambda) (antibody, V domains shown)
VH: EVQLVESGGGLVQPGGSLRLSCAASGFTFSHYTLSWVRQAPGKGLEWVSVISGDGSYTYYADSVKGRFTISSDNSKNTLYLQMNSLRAEDTAVYYCARNFIKYVFANWGQGTLVTVSS
VL: DIELTQPPSVSVAPGQTARISCSGDKLGKKYASWYQQKPGQAPVLVIYEKDNRPSGIPERFSGSNSGNTATLTISGTQAEDEADYYCSSFAGNSLEVFGGGTKLTVLG
notes: Expressed in CHO cells, protein A purified; also called 18R8 IgG2 antibody; anti-FZD antibody 18R8
no binding (tested: 10 ug/ml): all assays above
